According to patent publication US20210396758A1 (AMLO BIOSCIENCES, published 2021):
Ends that are not written are not given here.

Key:
[1] = molecular target: T1, N1-CD33-His6 (the ectodomain of human CD33 fused to the N1 domain of the g3p filamentous phage M13) (filamentous phage M13; human, UniProt P20138 18-259); experiment: QC ELISA of the chimeric human/mouse IgG1 antibody on immobilized control protein; signal over background
T1 construct: extracellular domain; not shown: N1 domain of g3p of filamentous phage M13

[2] = molecular target: T2, human Ambra-1 (human, UniProt Q9C0C7 1-1298); experiment: automated immunohistochemistry (Ventana Benchmark XT), chimeric mouse IgG1 format
T2 construct: the protein stood in tissue sections (immunohistochemistry)
T2 sequence: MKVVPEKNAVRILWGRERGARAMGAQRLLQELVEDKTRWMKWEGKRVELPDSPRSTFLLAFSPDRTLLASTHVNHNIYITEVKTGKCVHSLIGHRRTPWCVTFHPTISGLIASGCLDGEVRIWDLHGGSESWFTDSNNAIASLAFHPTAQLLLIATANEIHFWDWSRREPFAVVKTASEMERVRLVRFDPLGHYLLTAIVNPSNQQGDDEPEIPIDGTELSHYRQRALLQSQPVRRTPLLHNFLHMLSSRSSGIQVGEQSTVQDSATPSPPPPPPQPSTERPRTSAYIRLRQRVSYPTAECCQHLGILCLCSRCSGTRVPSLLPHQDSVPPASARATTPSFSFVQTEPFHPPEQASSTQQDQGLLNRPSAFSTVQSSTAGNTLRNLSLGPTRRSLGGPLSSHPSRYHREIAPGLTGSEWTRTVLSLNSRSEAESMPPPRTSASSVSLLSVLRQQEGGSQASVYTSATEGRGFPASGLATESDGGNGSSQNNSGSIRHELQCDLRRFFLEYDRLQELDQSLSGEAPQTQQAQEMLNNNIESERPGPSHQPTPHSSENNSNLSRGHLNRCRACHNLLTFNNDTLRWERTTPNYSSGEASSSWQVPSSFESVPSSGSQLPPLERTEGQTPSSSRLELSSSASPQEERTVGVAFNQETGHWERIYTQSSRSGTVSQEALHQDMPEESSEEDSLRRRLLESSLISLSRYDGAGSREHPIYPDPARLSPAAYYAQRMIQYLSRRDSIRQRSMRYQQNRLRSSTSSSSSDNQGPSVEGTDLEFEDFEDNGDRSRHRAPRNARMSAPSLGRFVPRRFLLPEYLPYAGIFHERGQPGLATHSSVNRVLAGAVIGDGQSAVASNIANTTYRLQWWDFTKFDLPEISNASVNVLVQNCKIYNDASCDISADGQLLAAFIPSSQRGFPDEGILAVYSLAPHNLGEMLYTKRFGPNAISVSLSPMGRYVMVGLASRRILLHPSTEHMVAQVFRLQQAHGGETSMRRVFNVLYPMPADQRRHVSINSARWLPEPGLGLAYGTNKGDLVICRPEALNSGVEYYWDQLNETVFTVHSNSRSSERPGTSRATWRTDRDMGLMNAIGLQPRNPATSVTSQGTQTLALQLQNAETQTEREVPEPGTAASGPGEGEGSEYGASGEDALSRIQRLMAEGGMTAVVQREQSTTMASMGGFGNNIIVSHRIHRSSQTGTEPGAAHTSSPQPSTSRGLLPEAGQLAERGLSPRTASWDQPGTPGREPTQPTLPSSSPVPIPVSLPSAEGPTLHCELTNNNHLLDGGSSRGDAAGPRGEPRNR

[3] = molecular target: T3, Ambra-1 peptide (synthesized peptide to which anti-Ambra-1 antibodies were raised) (human, not fully specified); experiment: QC ELISA of the chimeric human/mouse IgG1 antibody on immobilized Ambra-1 peptide conjugates Amb1-TRF and Amb1-BSA; signal over background
T3 construct: Tested in ELISA in native and denatured form; also called Ambra-1 antigen
T3 peptide: CGGSSRGDAAGPRGEPRNR

[4] = molecular target: T1, N1-CD33-His6 (the ectodomain of human …); experiment: QC ELISA, purified Fab on immobilized control protein; signal (x-fold) over background
[5] = molecular target: T1, N1-CD33-His6 (the ectodomain of human …); experiment: QC ELISA of the chimeric human/mouse IgG1 antibody on immobilized control protein; signal over background; remark: listed apart in the source

T1 sequence (P20138 18-259, tags left off): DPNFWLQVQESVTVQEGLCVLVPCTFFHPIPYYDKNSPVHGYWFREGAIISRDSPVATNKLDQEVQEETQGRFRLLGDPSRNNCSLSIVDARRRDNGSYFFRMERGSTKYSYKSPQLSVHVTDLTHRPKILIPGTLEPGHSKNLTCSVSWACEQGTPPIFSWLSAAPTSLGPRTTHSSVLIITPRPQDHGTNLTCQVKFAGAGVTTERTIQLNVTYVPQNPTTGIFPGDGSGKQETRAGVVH

B1: AbD33473 full length chimeric antibody against human Ambra-1 with an IgG1 mouse Fc region (antibody, V domains shown)
VH: EVQLVQSGAEVKKPGESLKISCKGSGYSFSSYWIHWVRQMPGKGLEWMGTIFPSRSYTTYSPSFQGQVTISADKSISTAYLQWSSLKASDTAMYYCARDTPSTALKSPFDYWGQGTLVTVSS
VL: DIVLTQPPSVSGAPGQRVTISCSGSSSNIGYNYVYWYQQLPGTAPKLLIYENNKRPSGVPDRFSGSKSGTSASLAITGLQAEDEADYYCSSWDSHSNSYVFGGGTKLTVLG
notes: also called recombinant monoclonal antibody AbD33473; HuCAL antibody AbD33473
[1]
  binding result: no binding
[2]
  binding result: binds
[3]
  binding result: binds

B2: HuCAL recombinant monoclonal antibody fragment against human Ambra-1, AbD33473.1, bivalent Fab (Fab-A-FH) (Fab)
heavy: EVQLVQSGAEVKKPGESLKISCKGSGYSFSSYWIHWVRQMPGKGLEWMGTIFPSRSYTTYSPSFQGQVTISADKSISTAYLQWSSLKASDTAMYYCARDTPSTALKSPFDYWGQGTLVTVSSASTKGPSVFPLAPSSKSTSGGTAALGCLVKDYFPEPVTVSWNSGALTSGVHTFPAVLQSSGLYSLSSVVTVPSSSLGTQTYICNVNHKPSNTKVDKKVEPKSRTPEMPVLENRAAQGDITAPGGARRLTGDQTAALRDSLSDKPAKNIILLIGDGMGDSEITAARNYAEGAGGFFKGIDALPLTGQYTHYALNKKTGKPDYVTDSAASATAWSTGVKTYNGALGVDIHEKDHPTILEMAKAAGLATGNVSTAELQDATPAALVAHVTSRKCYGPSATSEKCPGNALEKGGKGSITEQLLNARADVTLGGGAKTFAETATAGEWQGKTLREQAQARGYQLVSDAASLNSVTEANQQKPLLGLFADGNMPVRWLGPKATYHGNIDKPAVTCTPNPQRNDSVPTLAQMTDKAIELLSKNEKGFFLQVEGASIDKQDHAANPCGQIGETVDLDEAVQRALEFAKKEGNTLVIVTADHAHASQIVAPDTKAPGLTQALNTKDGAVMVMSYGNSEEDSQEHTGSQLRIAAYGPHAANVVGLTDQTDLFYTMKAALGLKDYKDDDDKHHHHHH
light: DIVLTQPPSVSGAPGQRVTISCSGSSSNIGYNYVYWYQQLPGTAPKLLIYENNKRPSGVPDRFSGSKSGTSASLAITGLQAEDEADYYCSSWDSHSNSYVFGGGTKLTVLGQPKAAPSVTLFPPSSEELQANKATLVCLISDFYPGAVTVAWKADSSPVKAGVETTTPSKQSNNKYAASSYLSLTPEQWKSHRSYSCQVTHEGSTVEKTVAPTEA
notes: domain: alkaline phosphatase dimerization domain
[4]
  binding result: no binding

B3: AbD33047 full length chimeric antibody against human Loricrin with an IgG1 mouse Fc region (antibody, V domains shown)
VH: QVQLVQSGAEVKKPGASVKVSCKASGYTFNDYYIHWVRQAPGQGLEWMGVISPNSGKTNYAQKFQGRVTMTRDTSISTAYMELSRLRSEDTAVYYCARDLYPDSSAFDIWGQGTLVTVSS
VL: DIELTQPPSVSVSPGQTASITCSGDNLGDKYAHWYQQKPGQAPVLVIYDDNERPSGIPERFSGSNSGNTATLTISGTQAEDEADYYCQSYDSGNRVFGGGTKLTVLG
notes: also called recombinant monoclonal antibody AbD33047; HuCAL antibody AbD33047
[5]
  binding result: no binding
